Experimental data from US20240238445A1, “INHIBITORS AND USES THEREOF” (NEURACLE SCIENCE CO., LTD., priority 2021, published 2024).

Columns and labels:
[1] = tested on: mouse primary cortical neurons; test: Neurite growth of mouse primary cortical neurons in vitro; format: cell-based; conditions: treated days 1 and 2, assessed day 3, anti-beta-tubulin III; LRRC4B fragment 0.006 to 60 nM; versus control
Method: Next, primary cortical neurons (day 1 postnatal) were cultured in vitro with varying concentrations (0.006 to 60 nM) of the LRRC4B (453-576) protein fragment (i.e., amino acid residues 453-576 of SEQ ID NO: 2; SEQ ID NO: 7), and then at day 3 post-initial culture, the effect on neurite growth was assessed by immunostaining the cells with anti-beta-tubulin III antibody. Cells cultured with DMSO (“Veh”) were used as control.
Mouse hippocampal neurons were treated with LRRC4B peptides at 1 and 2 DIV to determine neurite growth. It was measured by using 3 different parameters, which are total neurites length, number of primary and secondary neurites. After the neurons were stained with beta-tubulin III at 3 DIV, neurites length and branch points were measured using Fiji (Image J, NIH, Bethesda). Individual neurons were selected by hand and these parameters were counted using the Simple neurite tracer plugin. Mouse spinal motor neurons sampled at postnatal day 1 were treated with 10 nM of NS101 and LRRC4B-peptides (dFB-dWY-JM31 and dFB-DY-JM31) at 1 and 2 DIV and immunostained with Tau-5 antibody at 3 DIV. Total neurite length and number of somas in images were measured by Neurphology Image J plugin.

FAM19A5 protein [2] = biological target: T1, FAM19A5 protein (Homo sapiens, UniProt Q7Z5A7); test: ELISA binding of recombinant FAM19A5 to coated hFc-conjugated LRRC4 family ectodomains, fragments or synthetic peptides; conditions: for binding to FAM19A5 protein (ELISA, in words): coated 100 nM/well, FAM19A5 up to 10 nM; for EC50: hFc-conjugated ectodomain coated 100 nM/well, FAM19A5 0.005-10 nM, 37° C. 1 hour
Method: Next, to confirm the above co-immunoprecipitation results, an ELISA assay was used to measure the binding of the FAM19A5 protein to either the full-length ectodomain of members of LRRC4 protein family or various LRRC4B ectodomain protein fragments. Specifically, an ELISA plate was coated with one of the following LRRC4B ectodomain protein, which was conjugated to human Fc (100 nM/well): (1) full-length ectodomain of LRRC4 protein (amino acid residues 39-527 of SEQ ID NO: 1) (SEQ ID NO: 4); (2) full-length ectodomain of LRRC4B protein (amino acids 36-576 of SEQ ID NO: 2; i.e., construct #7 in Table 6) (SEQ ID NO: 5); (3) full-length ectodomain of LRRC4C protein (amino acids 45-527 of SEQ ID NO: 3) (SEQ ID NO: 6); (4) LRRC4B ectodomain fragment (amino acids 453-576 of SEQ ID NO: 2; i.e., construct #11 in Table 6) (SEQ ID NO: 7); (5) LRRC4B ectodomain fragment (amino acids 484-576 of SEQ ID NO: 2; i.e., construct #12 in Table 6) (SEQ ID NO: 8); (6) LRRC4B ectodomain fragment (amino acids 482-576 of SEQ ID NO: 2) (SEQ ID NO: 9); (7) LRRC4B ectodomain fragment (amino acids 482-497 of SEQ ID NO: 2) (SEQ ID NO: 10); and (8) LRRC4B ectodomain fragment (amino acids 498-576 of SEQ ID NO: 2; i.e., construct #13 in Table 6) (SEQ ID NO: 11). Then, recombinant FAM19A5 proteins (0.005, 0.01, 0.025, 0.05, 0.1, 0.25, 0.5, 1, 2.5, 5, and 10 nM) were added to the relevant wells, and the plates were incubated at 37° C. for 1 hour. Afterwards, the amount of LRRC4B-bound FAM19A5 protein was detected using HRP-conjugated anti-FAM19A5 (1-65) antibody.
As further confirmation, three synthetic polypeptides comprising amino acids 484-497 of SEQ ID NO: 2 (i.e., YTYFTTVTVETLET; SEQ ID NO: 65) were constructed: (1) FB-16 (GYTYFTTVTVETLETQ; SEQ ID NO: 17), (2) FB-20 ([…]; SEQ ID NO: 18), and (3) FB-28 ([…]; SEQ ID NO: 19). The peptides differed in their total length. The ability of these polypeptides to bind to recombinant FAM19A5 protein was assessed using an ELISA assay as described above.

FAM19A5 protein [3] = biological target: T1, FAM19A5 protein; test: Co-immunoprecipitation of FLAG-tagged LRRC4 family deletion constructs/fragments with recombinant FAM19A5 in HEK293 cells; format: binding; conditions: HEK293 cells expressing FLAG-tagged construct, recombinant FAM19A5 1 μM 30 minutes; IP anti-FLAG, blot anti-FAM19A5 (3-2)
Method: To understand the interaction between FAM19A5 and members of the LRRC4 protein family, HEK293 cells were modified to express a FLAG-tagged member of the LRRC4 protein family, i.e., LRRC4C protein, LRRC4 protein, or LRRC4B protein. Then, the HEK293 cells or primary cortical neurons were treated with recombinant FAM19A5 protein (1 μM) for 30 minutes, and the binding between FAM19A5 protein and the different members of the LRRC4 protein family was assessed using both co-immunoprecipitation and immunofluorescence assays.
For the co-immunoprecipitation assay, cell lysates from the different FAM19A5-treated HEK293 cells were collected and immunoprecipitated with an anti-FLAG antibody, anti-FAM19A5 (1-65) antibody, or a human IgG antibody (control). Immunoprecipitated proteins were immunoblotted with anti-FLAG and anti-FAM19A5 (3-2) antibodies. For the immunofluorescence assay, the HEK293 cells treated with the recombinant FAM19A5 protein were immunostained with anti-FAM19A5 (3-2) (to detect FAM19A5 protein expression) and anti-FLAG antibodies (to detect member of the LRRC4 protein family). The primary cortical neurons treated with the recombinant FAM19A5 protein were immunostained with anti-FAM19A5 (3-2) and anti-LRRC4B antibodies. The nuclei were stained with Hoechst33342 (blue).
To determine the specific motif or domain of the LRRC4B protein that is responsible for the binding to a FAM19A5 protein, various FLAG-tagged LRRC4B deletion constructs were generated (see Table 6 below). HEK293 cells were transfected with the different deletion constructs and then treated with recombinant FAM19A5 protein as described in Example 1. Then, the cell lysates from the different HEK293 cells were immunoprecipitated with the anti-FLAG antibody. The immunoprecipitated proteins were immunoblotted with anti-FLAG and anti-FAM19A5 (3-2) antibodies.
As described in Example 2, all members of the LRRC4 protein family were capable of binding to FAM19A5 protein to varying degrees. Therefore, to compare the bindings domains, the amino acid sequences of the LRRC4B, LRRC4, and LRRC4C proteins were aligned. […] Therefore, to assess whether the corresponding positions of LRRC4 and LRRC4C were important in the binding of these proteins to FAM19A5 protein, cDNAs encoding either (i) LRRC4C protein fragment (amino acids 354-527 of SEQ ID NO: 3; SEQ ID NO: 66) or (ii) LRRC4 protein fragment (amino acids 353-527 of SEQ ID NO: 1; SEQ ID NO: 67) were constructed (see Table 7). HEK293 cells were transfected to express either of the protein fragments and then treated with recombinant FAM19A5 protein as described in Example 1. Then, the cell lysates from the different HEK293 cells were immunoprecipitated with the anti-FLAG antibody. The immunoprecipitated proteins were immunoblotted with anti-FLAG and anti-FAM19A5 (3-2) antibodies.

T1 sequence (Q7Z5A7 44-132): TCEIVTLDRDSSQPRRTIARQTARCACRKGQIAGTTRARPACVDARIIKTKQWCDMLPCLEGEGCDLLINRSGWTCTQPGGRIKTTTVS

| Molecule | neurite growth / neurite outgrowth [1] | binding to FAM19A5 protein (ELISA, in words) (FAM19A5 protein [2]) | EC50 (FAM19A5 protein [2]) [nM] | binding to FAM19A5 protein (co-immunoprecipitation) (FAM19A5 protein [3]) |
| --- | --- | --- | --- | --- |
| GYTYFTTVTVETLETQ [FB-16] | Increased neurite outgrowth | able to bind to recombinant FAM19A5 protein with high affinity | – | – |
| GYTYFTTVTVETLETQPGEKEPPGPTTD [FB-28] | Increased neurite outgrowth | able to bind to recombinant FAM19A5 protein with high affinity | – | – |
| LRRC4 full-length ectodomain: full-length ectodomain of LRRC4 protein, amino acid residues 39-527 of SEQ ID NO: 1, conjugated to human Fc (protein, conjugated to human Fc) ASAGPQNCPSVCSCSNQFSKVVCTRRGLSEVPQGIPSNTRYLNLMENNIQMIQADTFRHLHHLEVLQLGRNSIRQIEVGAFNGLASLNTLELFDNWLTVIPSGAFEYLSKLRELWLRNNPIESIPSYAFNRVPSLMRLDLGELKKLEYISEGAFEGLFNLKYLNLGMCNIKDMPNLTPLVGLEELEMSGNHFPEIRPGSFHGLSSLKKLWVMNSQVSLIERNAFDGLASLVELNLAHNNLSSLPHDLFTPLRYLVELHLHHNPWNCDCDILWLAWWLREYIPTNSTCCGRCHAPMHMRGRYLVEVDQASFQCSAPFIMDAPRDLNISEGRMAELKCRTPPMSSVKWLLPNGTVLSHASRHPRISVLNDGTLNFSHVLLSDTGVYTCMVTNVAGNSNASAYLNVSTAELNTSNYSFFTTVTVETTEISPEDTTRKYKPVPTTSTGYQPAYTTSTTVLIQTTRVPKQVAVPATDTTDKMQTSLDEVMKTTK | – | – | 0.48 | – |
| LRRC4B (36-576): full-length ectodomain of LRRC4B protein, amino acids 36-576 of SEQ ID NO: 2; FLAG-tagged or conjugated to human Fc (protein, FLAG tag or human Fc) AGGGGVAVTSAAGGGSPPATSCPVACSCSNQASRVICTRRDLAEVPASIPVNTRYLNLQENGIQVIRTDTFKHLRHLEILQLSKNLVRKIEVGAFNGLPSLNTLELFDNRLTTVPTQAFEYLSKLRELWLRNNPIESIPSYAFNRVPSLRRLDLGELKRLEYISEAAFEGLVNLRYLNLGMCNLKDIPNLTALVRLEELELSGNRLDLIRPGSFQGLTSLRKLWLMHAQVATIERNAFDDLKSLEELNLSHNNLMSLPHDLFTPLHRLERVHLNHNPWHCNCDVLWLSWWLKETVPSNTTCCARCHAPAGLKGRYIGELDQSHFTCYAPVIVEPPTDLNVTEGMAAELKCRTGTSMTSVNWLTPNGTLMTHGSYRVRISVLHDGTLNFTNVTVQDTGQYTCMVTNSAGNTTASATLNVSAVDPVAAGGTGSGGGGPGGSGGVGGGSGGYTYFTTVTVETLETQPGEEALQPRGTEKEPPGPTTDGVWGGGRPGDAAGPASSSTTAPAPRSSRPTEKAFTVPITDVTENALKDLDDVMKTTK | – | – | 0.64 | able to bind to the FAM19A5 protein with varying degree |
| full-length LRRC4C protein: full-length ectodomain of LRRC4C protein, amino acids 45-527 of SEQ ID NO: 3, conjugated to human Fc (protein, conjugated to human Fc) QTCPSVCSCSNQFSKVICVRKNLREVPDGISTNTRLLNLHENQIQIIKVNSFKHLRHLEILQLSRNHIRTIEIGAFNGLANLNTLELFDNRLTTIPNGAFVYLSKLKELWLRNNPIESIPSYAFNRIPSLRRLDLGELKRLSYISEGAFEGLSNLRYLNLAMCNLREIPNLTPLIKLDELDLSGNHLSAIRPGSFQGLMHLQKLWMIQSQIQVIERNAFDNLQSLVEINLAHNNLTLLPHDLFTPLHHLERIHLHHNPWNCNCDILWLSWWIKDMAPSNTACCARCNTPPNLKGRYIGELDQNYFTCYAPVIVEPPADLNVTEGMAAELKCRASTSLTSVSWITPNGTVMTHGAYKVRIAVLSDGTLNFTNVTVQDTGMYTCMVSNSVGNTTASATLNVTAATTTPFSYFSTVTVETMEPSQDEARTTDNNVGPTPVVDWETTNVTTSLTPQSTRSTEKTFTIPVTDINSGIPGIDEVMKTTK | – | No saturation in binding was observed | – | – |
